Like-named read-outs stand apart in the source and are kept apart here.
B1: Anti-Claudin18.2/SIRPα bispecific antibody ES028-001 (bispecific antibody, not shown: a dimerising Fc or GST)
light (part 1 of 2): DIVMTQSPDSLAVSLGERATINCKSSQSLLNAGNQKNYLTWYQQKPGQPPKLLIYWSSTRESGVPDRFSGSGSGTDFTLTISSLQAEDVAVYHCQNNYYYPLTFGGGTKLEIK
light (part 2 of 2): GGGGSGGGGSGGGGSQIVLTQSPAIMSASPGEKVTLTCSASSSVSSSYLYWYQQKPGSSPKLWIYSTSNLASGVPARFSGSGSGTSYSLTISSMEAEDAASYFCHQWSSYPYTFGGGTKLEIKGGGGSGGGGSGGGGSGGGGSEVQLQQSGAELVKPGASVKLSCTASGFNIKDYYMHWVKQRTEQGLEWIGRIDPEDGETKYAPKFQGKATITADTSSNTAYLQLSSLTSEDTAVYYCDRGLAYWGQGTLVTVSA
heavy: QVQLVQSGAEVKKPGASVKVSCKASGYTFTNWVHWVRQAPGQGLEWMGEINPTNARSNYNEKFKKRVTMTRDTSTSTVYMELSSLRSEDTAVYYCARIYYGNSFAHWGQGTLVTVSS
B2: Anti-Claudin18.2/SIRPα bispecific antibody ES028-005 (bispecific antibody, not shown: a dimerising Fc or GST)
light: DIVMTQSPDSLAVSLGERATINCKSSQSLLNAGNQKNYLTWYQQKPGQPPKLLIYWSSTRESGVPDRFSGSGSGTDFTLTISSLQAEDVAVYHCQNNYYYPLTFGGGTKLEIK
heavy (part 1 of 2): QVQLVQSGAEVKKPGASVKVSCKASGYTFTNWVHWVRQAPGQGLEWMGEINPTNARSNYNEKFKKRVTMTRDTSTSTVYMELSSLRSEDTAVYYCARIYYGNSFAHWGQGTLVTVSS
heavy (part 2 of 2): GGGGSGGGGSGGGGSQIVLTQSPAIMSASPGEKVTLTCSASSSVSSSYLYWYQQKPGSSPKLWIYSTSNLASGVPARFSGSGSGTSYSLTISSMEAEDAASYFCHQWSSYPYTFGGGTKLEIKGGGGSGGGGSGGGGSGGGGSEVQLQQSGAELVKPGASVKLSCTASGFNIKDYYMHWVKQRTEQGLEWIGRIDPEDGETKYAPKFQGKATITADTSSNTAYLQLSSLTSEDTAVYYCDRGLAYWGQGTLVTVSA
B3: Anti-Claudin18.2 antibody hu28.H1L2 (antibody, V domains shown)
VH: QVQLVQSGAEVKKPGASVKVSCKASGYTFTNWVHWVRQAPGQGLEWMGEINPTNARSNYNEKFKKRVTMTRDTSTSTVYMELSSLRSEDTAVYYCARIYYGNSFAHWGQGTLVTVSS
VL: DIVMTQSPDSLAVSLGERATINCKSSQSLLNAGNQKNYLTWYQQKPGQPPKLLIYWSSTRESGVPDRFSGSGSGTDFTLTISSLQAEDVAVYHCQNNYYYPLTFGGGTKLEIK
B4: Humanized anti-SIRPα antibody hu025.021 (antibody, V domains shown)
VH: EVQLVQSGAEVKKPGATVKISCKVSGFNIKDYYMHWVQQAPGKGLEWIGRIDPEDAETKYAPKFQGRVTITADTSTNTAYMELSSLRSEDTAVYYCDRGLAYWGQGTLVTVSS
VL: EIVLTQSPATLSLSPGERATLSCSASSSVSSSYLYWYQQKPGQAPKLWIYSTSNLASGIPARFSGSGSGTDYTLTISSLEPEDFAVYYCHQWSSYPYTFGQGTKLEIK
B5: Humanized anti-SIRPα antibody hu025.023 (antibody, V domains shown)
VH: EVQLVQSGAEVKKPGATVKISCKVSGFNIKDYYMHWVQQAPGKGLEWIGRIDPEDAETKYAPKFQGRVTITADTSTNTAYMELSSLRSEDTAVYYCDRGLAYWGQGTLVTVSS
VL: EIVLTQSPATLSLSPGERATLSCSASSSVSSSYLYWYQQKPGQAPKLWIYSTSNLASGIPARFSGSGSGTDFTLTISSLEPEDFAVYYCHQWSSYPYTFGQGTKLEIK
B6: Humanized anti-SIRPα antibody hu025.060 (antibody, V domains shown)
VH: EVQLVQSGAEVKKPGATVKISCKASGFNIKDYYMHWVQQAPGKGLEWIGRIDPEDAETKYAPKFQGRVTITADTSTNTAYMELSSLRSEDTAVYYCDRGLAYWGQGTLVTVSS
VL: EIVLTQSPATLSLSPGERATLSCSASSSVSSSYLYWYQQKPGQAPKLWIYSTSNLASGIPARFSGSGSGTDFTLTISSLEPEDFAVYYCHQWSSYPYTFGQGTKLEIK
B7: Humanized anti-SIRPα antibody hu025.059 (antibody, V domains shown)
VH: EVQLVQSGAEVKKPGATVKISCKASGFNIKDYYMHWVQQAPGKGLEWIGRIDPEDAETKYAPKFQGRVTITADTSTNTAYMELSSLRSEDTAVYYCDRGLAYWGQGTLVTVSS
VL: EIVLTQSPATLSLSPGERATLSCSASSSVSSSYLYWYQQKPGQAPKLWIYSTSNLASGIPARFSGSGSGTDYTLTISSLEPEDFAVYYCHQWSSYPYTFGQGTKLEIK
B8: Anti-SIRPα antibody C25 (antibody, V domains shown)
VH: EVQLQQSGAELVKPGASVKLSCTASGFNIKDYYMHWVKQRTEQGLEWIGRIDPEDGETKYAPKFQGKATITADTSSNTAYLQLSSLTSEDTAVYYCDRGLAYWGQGTLVTVSA
VL: QIVLTQSPAIMSASPGEKVTLTCSASSSVSSSYLYWYQQKPGSSPKLWIYSTSNLASGVPARFSGSGSGTSYSLTISSMEAEDAASYFCHQWSSYPYTFGGGTKLEIK
B9: Anti-PDL1/SIRPα bispecific antibody ES019-024 (bispecific antibody, not shown: a dimerising Fc or GST)
light: QIVLTQSPAIMSASPGEKVTLTCSASSSVSSSYLYWYQQKPGSSPKLWIYSTSNLASGVPARFSGSGSGTSYSLTISSMEAEDAASYFCHQWSSYPYTFGGGTKLEIK
heavy (part 1 of 2): EVQLQQSGAELVKPGASVKLSCTASGFNIKDYYMHWVKQRTEQGLEWIGRIDPEDGETKYAPKFQGKATITADTSSNTAYLQLSSLTSEDTAVYYCDRGLAYWGQGTLVTVSA
heavy (part 2 of 2): EVQVVESGGGLVQSGGSLKLSCAGSGFTESAGFMVWHRQVPGKERELVALIATPSGSTNYADSVKGRFTISRDNGKNTVYLQMNSLKPEDTAVYYCNIRGYWGQGTLVTVSS
B10: Anti-Claudin18.2/SIRPα bispecific antibody ES028-013 (bispecific antibody, not shown: a dimerising Fc or GST)
light: QIVLTQSPAIMSASPGEKVTLTCSASSSVSSSYLYWYQQKPGSSPKLWIYSTSNLASGVPARFSGSGSGTSYSLTISSMEAEDAASYFCHQWSSYPYTFGGGTKLEIK
heavy (part 1 of 2): EVQLQQSGAELVKPGASVKLSCTASGFNIKDYYMHWVKQRTEQGLEWIGRIDPEDGETKYAPKFQGKATITADTSSNTAYLQLSSLTSEDTAVYYCDRGLAYWGQGTLVTVSA
heavy (part 2 of 2): GGGGSGGGGSGGGGSDIVMTQSPDSLAVSLGERATINCKSSQSLLNAGNQKNYLTWYQQKPGQPPKLLIYWSSTRESGVPDRFSGSGSGTDFTLTISSLQAEDVAVYHCQNNYYYPLTFGGGTKLEIKGGGGSGGGGSGGGGSGGGGSQVQLVQSGAEVKKPGASVKVSCKASGYTFTNWVHWVRQAPGQGLEWMGEINPTNARSNYNEKFKKRVTMTRDTSTSTVYMELSSLRSEDTAVYYCARIYYGNSFAHWGQGTLVTVSS
B11: Anti-PDL1/SIRPα bispecific antibody ES019-026 (bispecific antibody, not shown: small tags and cut ends; a dimerising Fc or GST)
light (part 1 of 2): EVQVVESGGGLVQSGGSLKLSCAGSGFTESAGFMVWHRQVPGKERELVALIATPSGSTNYADSVKGRFTISRDNGKNTVYLQMNSLKPEDTAVYYCNIRGYWGQGTLVTVSS
light (part 2 of 2): QIVLTQSPAIMSASPGEKVTLTCSASSSVSSSYLYWYQQKPGSSPKLWIYSTSNLASGVPARFSGSGSGTSYSLTISSMEAEDAASYFCHQWSSYPYTFGGGTKLEIK
heavy: EVQLQQSGAELVKPGASVKLSCTASGFNIKDYYMHWVKQRTEQGLEWIGRIDPEDGETKYAPKFQGKATITADTSSNTAYLQLSSLTSEDTAVYYCDRGLAYWGQGTLVTVSA
B12: Anti-Claudin18.2/SIRPα bispecific antibody ES028-009 (bispecific antibody, not shown: a dimerising Fc or GST)
light (part 1 of 2): QIVLTQSPAIMSASPGEKVTLTCSASSSVSSSYLYWYQQKPGSSPKLWIYSTSNLASGVPARFSGSGSGTSYSLTISSMEAEDAASYFCHQWSSYPYTFGGGTKLEIK
light (part 2 of 2): GGGGSGGGGSGGGGSDIVMTQSPDSLAVSLGERATINCKSSQSLLNAGNQKNYLTWYQQKPGQPPKLLIYWSSTRESGVPDRFSGSGSGTDFTLTISSLQAEDVAVYHCQNNYYYPLTFGGGTKLEIKGGGGSGGGGSGGGGSGGGGSQVQLVQSGAEVKKPGASVKVSCKASGYTFTNWVHWVRQAPGQGLEWMGEINPTNARSNYNEKFKKRVTMTRDTSTSTVYMELSSLRSEDTAVYYCARIYYGNSFAHWGQGTLVTVSS
heavy: EVQLQQSGAELVKPGASVKLSCTASGFNIKDYYMHWVKQRTEQGLEWIGRIDPEDGETKYAPKFQGKATITADTSSNTAYLQLSSLTSEDTAVYYCDRGLAYWGQGTLVTVSA

How the values were obtained:
[1] = target: human SIRPα protein (Octet assay) (human) (UniProt P78324); experiment: Octet; antibody on sensor, SIRPα protein in solution
[2] = target: human SIRPα on CHO-K1 cells (human) (UniProt P78324); experiment: FACS, CHO-K1 cells overexpressing human SIRPα, anti-human Fc-PE, MFI
[3] = target: human Claudin18.2 on Raji cells (human) (UniProt P56856); experiment: FACS, Raji cells overexpressing human Claudin18.2, anti-human Fc-PE, MFI
Human SIRPα v1 (human) = Human SIRPα v1 (human) (UniProt P78324); experiment: SPR (Biacore), 1:1 binding model
[4] = target: human SIRPα on CHO-K1 cells (human) (UniProt P78324); experiment: FACS, CHO-K1 cells overexpressing human SIRPα, anti-human Fc-PE, MFI; remark: listed apart in the source

Sequence of Human SIRPα v1 (human) (P78324 31-370): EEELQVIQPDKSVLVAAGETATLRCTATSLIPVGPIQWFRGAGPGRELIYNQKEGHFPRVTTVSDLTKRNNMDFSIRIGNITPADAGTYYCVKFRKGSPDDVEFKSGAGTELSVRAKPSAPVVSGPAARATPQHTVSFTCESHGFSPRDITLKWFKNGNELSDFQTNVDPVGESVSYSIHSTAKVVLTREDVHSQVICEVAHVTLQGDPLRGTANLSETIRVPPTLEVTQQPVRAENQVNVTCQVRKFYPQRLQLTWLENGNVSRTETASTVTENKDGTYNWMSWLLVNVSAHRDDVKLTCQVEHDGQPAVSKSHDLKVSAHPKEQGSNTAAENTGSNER

Binder	Kd [1] [nM]	koff [1] [s⁻¹]	kon [1] [M⁻¹ s⁻¹]	EC50 (read off the curve) [2] [nM]	EC50 (read off the curve) [3] [nM]	Kd (Human SIRPα v1 (human)) [nM]	koff (Human SIRPα v1 (human)) [s⁻¹]	kon (Human SIRPα v1 (human)) [M⁻¹ s⁻¹]	EC50 (read off the curve) [4] [nM]
B1	1.51	0.000271	179000	0.8	2	–	–	–	–
B2	1.41	0.00047	334000	0.9	1	–	–	–	–
B3	–	–	–	–	1	–	–	–	–
B4	–	–	–	–	–	3.05	0.00183	599000	–
B5	–	–	–	–	–	2.67	0.00172	643000	–
B6	–	–	–	–	–	1.99	0.00111	560000	–
B7	–	–	–	–	–	2.29	0.00123	536000	–
B8	2.12	0.00109	512000	0.5	–	1.53	0.000924	602000	0.3
B9	–	–	–	–	–	–	–	–	0.3
B10	–	–	–	0.5	–	–	–	–	–
B11	–	–	–	–	–	–	–	–	0.4
B12	2.44	0.00133	544000	0.5	–	–	–	–	–
